{"source": "patent US20220135672A1", "about": "(Hoffmann-La Roche, published 2022)", "key": {"[1]": {"biological_target": "T1, rabbit-CD19-GPI anchor-FLAG-tag fusion polypeptide (on transfected CHO-S / HEK293F cells) (rabbit; human)", "T1 sequence": "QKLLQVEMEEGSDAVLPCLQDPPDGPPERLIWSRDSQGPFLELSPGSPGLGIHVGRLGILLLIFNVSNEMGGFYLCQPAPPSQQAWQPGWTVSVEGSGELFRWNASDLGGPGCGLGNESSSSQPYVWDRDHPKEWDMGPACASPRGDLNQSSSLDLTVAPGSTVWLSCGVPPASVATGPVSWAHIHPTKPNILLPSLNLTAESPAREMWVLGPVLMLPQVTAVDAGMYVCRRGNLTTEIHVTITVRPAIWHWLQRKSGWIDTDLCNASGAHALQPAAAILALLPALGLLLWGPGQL", "assay": "FACS, CHO-S transfected with CD19 expression plasmid, detection with anti-mIgG-APC"}, "[2]": {"biological_target": "T1, rabbit-CD19-GPI anchor-FLAG-tag fusion polypeptide (on transfected CHO-S / HEK293F cells) (rabbit; human)", "assay": "FACS, HEK293F transfected with CD19 expression plasmid, detection with anti-mIgG-APC"}, "[3]": {"biological_target": "T2, rabbit CD19 (native, on the surface of rabbit B-cells) (rabbit)", "T2 construct": "Natural CD19 on rabbit PBMC / B-cells; also called rbCD19; native rabbit CD19", "T2 chain": "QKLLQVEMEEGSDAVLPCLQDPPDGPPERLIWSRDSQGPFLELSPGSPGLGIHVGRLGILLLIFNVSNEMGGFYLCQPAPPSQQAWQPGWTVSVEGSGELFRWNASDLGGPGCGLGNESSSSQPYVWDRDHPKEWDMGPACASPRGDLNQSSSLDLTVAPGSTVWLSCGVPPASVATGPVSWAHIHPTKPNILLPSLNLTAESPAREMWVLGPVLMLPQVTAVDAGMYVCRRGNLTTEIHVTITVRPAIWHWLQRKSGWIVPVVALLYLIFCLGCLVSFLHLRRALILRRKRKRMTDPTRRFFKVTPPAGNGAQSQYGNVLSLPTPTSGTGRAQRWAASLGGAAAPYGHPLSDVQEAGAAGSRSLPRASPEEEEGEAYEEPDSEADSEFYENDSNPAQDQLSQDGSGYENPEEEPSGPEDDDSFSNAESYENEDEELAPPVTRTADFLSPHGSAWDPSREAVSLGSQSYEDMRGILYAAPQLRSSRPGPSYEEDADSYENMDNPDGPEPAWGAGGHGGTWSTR", "assay": "FACS, rabbit PBMC", "method": "FACS analysis was applied for screening of hybridomas and to identify those hybridomas that secrete antibodies against rabbit CD19. All IgG-producing hybridomas were screened by FACS analysis of rabbit peripheral blood mononuclear cells (PBMCs) double stained with a rabbit IgM binding antibody for B-cell identification.\nFreshly isolated rabbit (PBMCs) were incubated with FITC labeled anti-rabbit IgM antibody (Southern Biotech) and IgG-positive hybridoma supernatants on ice. After 45 min. incubation the PBMCs were washed once with ice cold PBS and resuspended in an PE-labeled anti-mouse IgG antibody (Invitrogen) binding the murine IgG of the hybridoma supernatant. After another 45 min. incubation on ice the cells were washed again once with ice cold PBS. Finally, the PBMCs were resuspended in ice cold PBS and immediately subjected to the FACS analyses. DAPI-HCl in a concentration of 2 μg/ml (Cayman) was added prior to the FACS analyses to discriminate between dead and live cells. A Becton Dickinson FACS Canto II device equipped with a computer and the FACSDiva software (BD Biosciences) were used for the analysis."}}}
{"binder": "antibody 1H2 (mouse monoclonal anti-rabbit CD19 antibody) (antibody, mouse IgG2a, kappa, V domains shown, Mouse IgG from hybridoma; the chains are built here from variable domain plus constant region so that no leader is included; Tested as hybridoma supernatant, and later purified and labelled with Alexa 647 or biotin; also called clone 1H2; anti-CD19 A647) VH: QVQLQQSGPEVVKPGASVRMSCKASGYIFTNHYIHWMKQRPGQGLEWVGCIYPGNVNSNYNEKFKGKATLTADKSSSTAYLQLSSLTSEDSAVYFCARGGYYGSSYSWFAYWGQGTLVIVSA VL: DIVMTQSPATLSVTPGDRVSLSCRASQSISDFLHWYQQSSHESPRLLIKYASQSISGIPSRFSGSGSGSDFTLTINSVEPEDVGVYYCQNGHSFPYTFGGGTNLEIKR", "values": [{"measurement": "stained cells, absolute [n]", "setting": "[1]", "result": 975, "unit": "n"}, {"measurement": "stained cells, relative to total number [%]", "setting": "[1]", "result": 4.6, "unit": "%"}, {"measurement": "stained cells, absolute [n]", "setting": "[2]", "result": 7290, "unit": "n"}, {"measurement": "stained cells, relative to total number [%]", "setting": "[2]", "result": 35.9, "unit": "%"}, {"measurement": "Ratio Q2/IgM (%)", "setting": "[3]", "result": 93.2, "unit": "%"}]}
